Laboratory results taken from PMC5070119, “Oligomeric interface modulation causes misregulation of purine 5´-nucleotidase in relapsed leukemia” (BMC Biology, 2016).
Changes are numbered by the printed parent chain. Numbers in names are those of the source.

B1: cytosolic purine 5'-nucleotidase (cN-II), full-length wild type (enzyme, human, UniProt P49902 1-561, looked up)
chain: MSTSWSDRLQNAADMPANMDKHALKKYRREAYHRVFVNRSLAMEKIKCFGFDMDYTLAVYKSPEYESLGFELTVERLVSIGYPQELLSFAYDSTFPTRGLVFDTLYGNLLKVDAYGNLLVCAHGFNFIRGPETREQYPNKFIQRDDTERFYILNTLFNLPETYLLACLVDFFTNCPRYTSCETGFKDGDLFMSYRSMFQDVRDAVDWVHYKGSLKEKTVENLEKYVVKDGKLPLLLSRMKEVGKVFLATNSDYKYTDKIMTYLFDFPHGPKPGSSHRPWQSYFDLILVDARKPLFFGEGTVLRQVDTKTGKLKIGTYTGPLQHGIVYSGGSSDTICDLLGAKGKDILYIGDHIFGDILKSKKRQGWRTFLVIPELAQELHVWTDKSSLFEELQSLDIFLAELYKHLDSSSNERPDISSIQRRIKKVTHDMDMCYGMMGSLFRSGSRQTLFASQVMRYADLYAASFINLLYYPFSYLFRAAHVLMPHESTVEHTHVDINEMESPLATRNRTSVDFKDTDYKRHQLTRSISEIKPPNLFPLAPQEITHCHDEDDDEEEEEEEE
notes: cytosolic purine 5'-nucleotidase (cN-II), human, EC 3.1.3.5, 561 residues; full length made by ligating a synthetic C-terminal tail into the truncated construct; Homotetramer; also called wild-type cN-II; NT5C2 product
B2: cytosolic purine 5'-nucleotidase (cN-II) R367Q, full-length (enzyme, human, UniProt P49902 1-561, looked up)
chain: B1 chain with R367Q
notes: cytosolic purine 5'-nucleotidase (cN-II), human, 561 residues, with the relapsed-ALL somatic mutation R367Q; Mutation found in patients with relapsed ALL; Homotetramer; also called R367Q mutant
B3: cytosolic purine 5'-nucleotidase (cN-II) L375F, full-length (enzyme, human, UniProt P49902 1-561, looked up)
chain: B1 chain with L375F
notes: cytosolic purine 5'-nucleotidase (cN-II), human, 561 residues, with the relapsed-ALL somatic mutation L375F; Mutation found in patients with relapsed ALL; Homotetramer; also called L375F mutant
B4: cytosolic purine 5'-nucleotidase (cN-II) R238W, full-length (enzyme, human, UniProt P49902 1-561, looked up)
chain: B1 chain with R238W
notes: cytosolic purine 5'-nucleotidase (cN-II), human, 561 residues, with the relapsed-ALL somatic mutation R238W; Mutation found in patients with relapsed ALL; Homotetramer; also called R238W mutant

Target: the molecule itself
Assay: SEC; Superdex 200 10/300 GL, 50 mM sodium phosphate pH 7.4, 100 mM NaCl, 2 mM TCEP; 200 ul of 0.5 mg/ml protein; calibrated with high molecular weight standards

B1 was tested. Which “stoichiometry N” value did it give?
The value was 4.

How did the “stoichiometry N” value turn out when B2 was run?
The value was 4.

How did the “stoichiometry N” value turn out when B3 was run?
The value was 4.

With B4 as the protein, how does the “stoichiometry N” value read?
Its value is 4.
